“And” between values parts separate entries of the source, which are not always exact repeats. Equal values may be shown once.
How the values were obtained:
[1] = target: DUF4297 from Bacillus ap. HMH5848 (Bacillus ap. HMH5848); experiment: mass photometry
[2] = target: DUF4297 from Bacillus ap. HMH5848 (Bacillus ap. HMH5848); experiment: cryo-EM structure
[3] = target: HerA from Bacillus ap. HMH5848 (Bacillus ap. HMH5848); experiment: cryo-EM structure

stoichiometry N [1] | stoichiometry N [2] | stoichiometry N [3] | Substance
6 and 12 and 14 | 12 and 4 and 6 |  | DUF4297 from Bacillus ap. HMH5848 (enzyme)
 |  | 6 | HerA from Bacillus ap. HMH5848 (enzyme)

Source: publication PMC13189363
